Reference: patent publication US20170121416A1 (AbbVie / Abbott, published 2017)

Tests used:
[1] = target: T1, human CD324 on cells (MCF7, BR22, NTX tumor cells, 293-hCD324) (human, UniProt P12830 155-882); test: cell-based or functional assay
T1 sequence: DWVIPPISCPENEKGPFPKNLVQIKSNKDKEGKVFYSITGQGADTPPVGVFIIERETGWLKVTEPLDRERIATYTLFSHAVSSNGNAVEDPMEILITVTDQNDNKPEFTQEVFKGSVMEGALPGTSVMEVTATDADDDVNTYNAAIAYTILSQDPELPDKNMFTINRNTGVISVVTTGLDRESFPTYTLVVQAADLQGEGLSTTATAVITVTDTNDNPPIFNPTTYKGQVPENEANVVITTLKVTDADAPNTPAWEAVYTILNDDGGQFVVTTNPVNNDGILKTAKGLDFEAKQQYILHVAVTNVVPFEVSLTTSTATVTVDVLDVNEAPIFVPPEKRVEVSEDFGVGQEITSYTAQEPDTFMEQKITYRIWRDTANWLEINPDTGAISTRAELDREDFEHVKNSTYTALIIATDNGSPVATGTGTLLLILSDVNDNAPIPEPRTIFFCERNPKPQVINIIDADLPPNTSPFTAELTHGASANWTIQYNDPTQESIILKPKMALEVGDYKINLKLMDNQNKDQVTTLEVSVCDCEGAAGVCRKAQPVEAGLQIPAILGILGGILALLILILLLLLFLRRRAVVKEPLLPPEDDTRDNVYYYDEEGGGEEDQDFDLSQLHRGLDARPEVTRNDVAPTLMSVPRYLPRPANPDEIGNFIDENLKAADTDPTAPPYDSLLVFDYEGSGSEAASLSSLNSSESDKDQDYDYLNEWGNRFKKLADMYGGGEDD

[2] = target: T2, Nectin-4 on cells (MCF-7, SKBR3) (UniProt Q96NY8 32-510, limits assumed); test: cell-based or functional assay
T2 sequence (looked up): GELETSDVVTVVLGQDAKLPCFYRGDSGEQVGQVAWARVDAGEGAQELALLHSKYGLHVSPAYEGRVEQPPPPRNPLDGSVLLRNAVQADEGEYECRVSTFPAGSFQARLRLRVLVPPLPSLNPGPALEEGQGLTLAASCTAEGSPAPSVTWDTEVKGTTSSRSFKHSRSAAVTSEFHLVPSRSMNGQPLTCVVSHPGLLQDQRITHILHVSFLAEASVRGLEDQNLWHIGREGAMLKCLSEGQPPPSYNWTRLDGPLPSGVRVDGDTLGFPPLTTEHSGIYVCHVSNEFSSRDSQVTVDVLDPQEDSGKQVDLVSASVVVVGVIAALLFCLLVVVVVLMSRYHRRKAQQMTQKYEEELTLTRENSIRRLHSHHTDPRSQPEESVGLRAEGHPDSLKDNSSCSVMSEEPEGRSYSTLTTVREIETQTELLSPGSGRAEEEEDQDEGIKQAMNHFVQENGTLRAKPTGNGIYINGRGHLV

[3] = target: T1, human CD324 on cells (MCF7, BR22, NTX …); test: cell-based or functional assay; remark: listed apart in the source
[4] = target: T3, Nectin-4 protein (R&D Systems) (UniProt Q96NY8 32-349); test: bridging ELISA: Nectin-4 coated, detection with biotinylated CD324 W2A and streptavidin-HRP
T3 construct: bought; coated on the plate of the bridging ELISA
T3 sequence (looked up): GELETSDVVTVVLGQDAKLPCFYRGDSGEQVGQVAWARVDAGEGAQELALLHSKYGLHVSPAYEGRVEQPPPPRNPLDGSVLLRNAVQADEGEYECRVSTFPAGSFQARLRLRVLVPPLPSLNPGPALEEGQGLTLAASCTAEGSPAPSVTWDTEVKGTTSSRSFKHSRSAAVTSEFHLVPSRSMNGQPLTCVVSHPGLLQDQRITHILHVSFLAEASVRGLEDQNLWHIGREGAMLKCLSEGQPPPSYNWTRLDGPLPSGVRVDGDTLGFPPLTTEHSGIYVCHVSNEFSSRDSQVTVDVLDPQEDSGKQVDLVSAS

[5] = target: T1, human CD324 on cells (MCF7, BR22, NTX …); test: cell-based or functional assay; remark: listed apart in the source
[6] = target: T4, human CD324-His recombinant protein (Sino Biological, Inc.) (human, UniProt P12830 155-709); test: SPR (Biacore), similar experiments as for murine SC10.17; humanized antibody
T4 construct: bought soluble protein; The antigen of the Biacore experiment is only called human CD324 antigen; also called hCD324-His; human CD324 antigen; not shown: His tag
T4 sequence: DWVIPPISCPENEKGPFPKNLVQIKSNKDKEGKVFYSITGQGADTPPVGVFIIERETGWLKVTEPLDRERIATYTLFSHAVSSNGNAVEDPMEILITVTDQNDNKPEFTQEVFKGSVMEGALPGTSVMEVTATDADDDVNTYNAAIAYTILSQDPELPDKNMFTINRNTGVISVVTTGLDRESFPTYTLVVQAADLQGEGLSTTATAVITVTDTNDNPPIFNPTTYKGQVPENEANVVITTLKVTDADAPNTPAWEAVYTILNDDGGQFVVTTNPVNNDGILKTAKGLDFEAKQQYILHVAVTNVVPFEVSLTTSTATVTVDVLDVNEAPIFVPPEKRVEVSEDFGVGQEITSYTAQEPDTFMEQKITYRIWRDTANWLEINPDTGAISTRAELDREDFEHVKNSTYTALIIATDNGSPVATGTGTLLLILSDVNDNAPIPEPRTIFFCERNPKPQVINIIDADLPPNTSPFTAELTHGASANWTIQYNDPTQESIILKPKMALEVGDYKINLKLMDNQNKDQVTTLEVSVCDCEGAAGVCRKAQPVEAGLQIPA

binding result [4]: no binding
Kd [6]: 3800 pM
B1: hSC10.17 (antibody, V domains shown)
VH: EVQLVESGGGLVQPGGSLRLSCAASGFTFSSYGMHWVRQAPGKGLEWVAYITTRSSTIYYADSVKGRFTISRDNAKNSLYLQMNSLRAEDTAVYYCTREPLTGYYAMDYWGQGTSVTVSS
VL: DVVMTQSPLSLPVTLGQPASISCRSSQSIVHSDGNTYLEWYQQRPGQSPRRLIYKVSNRFSGVPDRFSGSGSGTDFTLKISRVEAEDVGVYYCFQGSHAPWTFGGGTKVEIK
notes: humanized (CDR-grafted) SC10.17; also called humanized SC10.17 mAb; hSC10.17 IgG
EC50 (MCF7, Fab-saporin killing) [1]: 4.44 pM
IC50 on SKBR3 (pM), in vitro killing with anti-human IgG Fab-saporin [2]: > 1000 pM
IC50 on 293-hCD324 (pM), in vitro killing with anti-human IgG Fab-saporin [3]: 0.27 pM
IC50 on MCF-7 (pM), in vitro killing with anti-human IgG Fab-saporin [3]: 3.1 pM
EC50 of killing of MCF7 cells, anti-human Fab-saporin assay [5]: 4.4 pM
